In the assay the target is Biotin-labeled fluorescent peptide …(S*)PDK-(5-FAM). The assay is described as follows: cell-based or functional assay.

Take “GSK3α, rHuman (from UniProt P49840 1-483) (enzyme)”: the EC50 of enzyme titration (TR-FRET ratio, 400 nM substrate, 200 µM ATP) worked out at 0.025 µg/mL. In the case of “GSK3β, rHuman (from UniProt P49841 1-420) (enzyme)”, the EC50 of enzyme titration (TR-FRET ratio, 400 nM substrate, 200 µM ATP) stood at 0.245 µg/mL.

Source of the values: patent US20050170442A1.
